Measurements published in paper PMC2756588.

Legend:
Experiment in all cases: SPOT array
Boi1, P38041 = molecular target: T1, Boi1, P38041; settings: median of control spots 1162
T1 sequence (P38041 1-86, looked up): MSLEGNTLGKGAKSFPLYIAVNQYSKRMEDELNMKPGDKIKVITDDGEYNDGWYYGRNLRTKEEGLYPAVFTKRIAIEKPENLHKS

Nbp2, Q12163 = molecular target: T2, Nbp2, Q12163; settings: median of control spots 357
T2 sequence (Q12163 103-180, looked up): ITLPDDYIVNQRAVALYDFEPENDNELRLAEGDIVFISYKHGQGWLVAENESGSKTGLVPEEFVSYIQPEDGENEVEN

Bbc1, P47068 = molecular target: T3, Bbc1, P47068; settings: median of control spots 796
T3 sequence (P47068 1-78, looked up): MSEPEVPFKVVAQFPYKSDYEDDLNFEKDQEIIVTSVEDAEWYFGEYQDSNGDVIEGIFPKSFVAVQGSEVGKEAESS

Lsb3, P43603 = molecular target: T4, Lsb3, P43603; settings: median of control spots 406
T4 sequence (P43603 385-451, looked up): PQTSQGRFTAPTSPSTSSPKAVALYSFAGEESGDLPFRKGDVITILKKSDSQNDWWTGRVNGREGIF

Fus1, P11710 = molecular target: T5, Fus1, P11710; settings: median of control spots 1200
T5 sequence (P11710 432-512, looked up): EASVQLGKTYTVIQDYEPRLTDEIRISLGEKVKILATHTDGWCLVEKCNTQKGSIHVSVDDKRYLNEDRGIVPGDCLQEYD

Sla1-2, P32790 = molecular target: T6, Sla1-2, P32790; settings: median of control spots 712
T6 sequence (P32790 60-140, looked up): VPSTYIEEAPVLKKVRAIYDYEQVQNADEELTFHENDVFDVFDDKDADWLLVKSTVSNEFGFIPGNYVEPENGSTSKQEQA

Bzz1-1, P38822 = molecular target: T7, Bzz1-1, P38822; settings: median of control spots 4446
T7 sequence (P38822 478-572, looked up): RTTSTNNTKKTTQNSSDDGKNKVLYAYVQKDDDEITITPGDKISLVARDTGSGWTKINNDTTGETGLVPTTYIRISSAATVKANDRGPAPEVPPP

Boi2, P39969 = molecular target: T8, Boi2, P39969; settings: median of control spots 1161
T8 sequence (P39969 32-116, looked up): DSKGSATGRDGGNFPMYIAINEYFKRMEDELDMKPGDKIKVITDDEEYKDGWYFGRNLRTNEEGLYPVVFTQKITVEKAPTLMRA

Myo5, Q04439 = molecular target: T9, Myo5, Q04439; settings: median of control spots 471
T9 sequence (Q04439 1072-1160, looked up): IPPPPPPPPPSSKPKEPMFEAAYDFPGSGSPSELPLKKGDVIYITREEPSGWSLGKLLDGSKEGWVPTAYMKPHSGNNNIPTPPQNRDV

Bem1-1, P29366 = settings: median of control spots 4282
Sequence of Bem1-1, P29366 (P29366 55-141): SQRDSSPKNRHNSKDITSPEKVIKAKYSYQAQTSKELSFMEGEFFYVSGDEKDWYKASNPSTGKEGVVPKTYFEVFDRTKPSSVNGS

Cyk3, Q07533 = molecular target: T10, Cyk3, Q07533; settings: median of control spots 1451
T10 sequence (Q07533 1-83, looked up): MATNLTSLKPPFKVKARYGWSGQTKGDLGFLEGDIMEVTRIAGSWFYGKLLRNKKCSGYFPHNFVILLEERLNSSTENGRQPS

Lsb4, P32793 = molecular target: T11, Lsb4, P32793; settings: median of control spots 397
T11 sequence (P32793 402-468, looked up): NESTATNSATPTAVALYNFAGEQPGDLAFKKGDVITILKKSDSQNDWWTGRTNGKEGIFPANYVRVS

Hse1, P38753 = molecular target: T12, Hse1, P38753; settings: median of control spots 1727
T12 sequence (P38753 208-285, looked up): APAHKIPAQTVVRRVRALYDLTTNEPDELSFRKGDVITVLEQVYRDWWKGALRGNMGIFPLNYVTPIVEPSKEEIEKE

Hof1, Q05080 = molecular target: T13, Hof1, Q05080; settings: median of control spots 4086
T13 sequence (Q05080 590-669, looked up): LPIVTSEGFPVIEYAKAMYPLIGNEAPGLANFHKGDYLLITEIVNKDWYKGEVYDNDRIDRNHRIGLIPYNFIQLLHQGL

Pex13, P80667 = molecular target: T14, Pex13, P80667; settings: median of control spots 1341
T14 sequence (P80667 295-386, looked up): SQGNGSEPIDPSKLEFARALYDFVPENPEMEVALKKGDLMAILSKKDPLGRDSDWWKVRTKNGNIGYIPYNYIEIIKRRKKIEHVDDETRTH

Cdc25, P04821 = molecular target: T15, Cdc25, P04821; settings: median of control spots 969
T15 sequence (P04821 50-136, looked up): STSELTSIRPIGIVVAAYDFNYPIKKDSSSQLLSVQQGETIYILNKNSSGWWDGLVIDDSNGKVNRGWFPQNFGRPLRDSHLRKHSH

Lsb1, P53281 = molecular target: T16, Lsb1, P53281; settings: median of control spots 388
T16 sequence (P53281 45-122, looked up): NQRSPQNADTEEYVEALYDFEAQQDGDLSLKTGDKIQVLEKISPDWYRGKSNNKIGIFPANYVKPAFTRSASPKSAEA

Sla1-3, P32790 = molecular target: T17, Sla1-3, P32790; settings: median of control spots 5475
T17 sequence (P32790 344-424, looked up): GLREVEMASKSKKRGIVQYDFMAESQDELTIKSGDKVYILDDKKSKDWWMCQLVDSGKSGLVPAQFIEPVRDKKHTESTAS

Pin3, Q06449 = molecular target: T18, Pin3, Q06449; settings: median of control spots 2171
T18 sequence (Q06449 53-122, looked up): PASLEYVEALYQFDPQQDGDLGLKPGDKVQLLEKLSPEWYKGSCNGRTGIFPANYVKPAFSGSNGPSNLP

Rvs167, P39743 = settings: median of control spots 2707
Sequence of Rvs167, P39743 (P39743 419-482): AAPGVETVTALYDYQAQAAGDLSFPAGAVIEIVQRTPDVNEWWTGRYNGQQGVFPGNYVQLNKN

Bud14, P27637 = molecular target: T19, Bud14, P27637; settings: median of control spots 956
T19 sequence (P27637 247-328, looked up): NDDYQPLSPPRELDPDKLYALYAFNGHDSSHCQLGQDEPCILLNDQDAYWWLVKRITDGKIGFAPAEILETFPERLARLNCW

Sho1, P40073 = settings: median of control spots 1148
Sequence of Sho1, P40073 (P40073 287-367): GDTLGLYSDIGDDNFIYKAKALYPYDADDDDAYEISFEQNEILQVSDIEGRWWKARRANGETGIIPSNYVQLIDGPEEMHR

Myo3, P36006 = settings: median of control spots 468
Bem1-2, P29366 = settings: median of control spots 4347
Sequence of Bem1-2, P29366 (P29366 139-227): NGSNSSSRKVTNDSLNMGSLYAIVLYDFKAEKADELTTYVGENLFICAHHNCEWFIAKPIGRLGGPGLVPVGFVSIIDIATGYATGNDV

GST = settings: median of control spots 978
Abp1, P15891 = molecular target: T20, Abp1, P15891; settings: median of control spots 935
T20 sequence (P15891 535-592, looked up): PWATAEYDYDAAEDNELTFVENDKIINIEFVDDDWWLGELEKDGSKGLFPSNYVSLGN

Bzz1-2, P38822 = molecular target: T21, Bzz1-2, P38822; settings: median of control spots 4538
T21 sequence (P38822 568-633, looked up): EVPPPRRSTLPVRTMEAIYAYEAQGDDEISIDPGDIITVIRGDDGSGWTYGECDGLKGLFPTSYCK

Binder: FPPKRKPLLRPQRSD
- SPOT intensity (Boi1, P38041): 6
- SPOT intensity (Nbp2, Q12163): 9
- SPOT intensity (Bbc1, P47068): 266
- SPOT intensity (Lsb3, P43603): 48
- SPOT intensity (Fus1, P11710): 6
- SPOT intensity (Sla1-2, P32790): 1
- SPOT intensity (Bzz1-1, P38822): 0
- SPOT intensity (Boi2, P39969): 1
- SPOT intensity (Myo5, Q04439): 0
- SPOT intensity (Bem1-1, P29366): 1
- SPOT intensity (Cyk3, Q07533): 3
- SPOT intensity (Lsb4, P32793): 81
- SPOT intensity (Hse1, P38753): 51
- SPOT intensity (Hof1, Q05080): 4
- SPOT intensity (Pex13, P80667): 16
- SPOT intensity (Cdc25, P04821): 27
- SPOT intensity (Lsb1, P53281): 69
- SPOT intensity (Sla1-3, P32790): 25
- SPOT intensity (Pin3, Q06449): 19
- SPOT intensity (Rvs167, P39743): 25
- SPOT intensity (Bud14, P27637): 19
- SPOT intensity (Sho1, P40073): 154
- SPOT intensity (Myo3, P36006): 30
- SPOT intensity (Bem1-2, P29366): 19
- SPOT intensity (GST): 2
- SPOT intensity (Abp1, P15891): 232
- SPOT intensity (Bzz1-2, P38822): 28

Binder: LKHGWKPLRPIKLIS
- SPOT intensity (Boi1, P38041): 0
- SPOT intensity (Nbp2, Q12163): 2
- SPOT intensity (Bbc1, P47068): 14
- SPOT intensity (Lsb3, P43603): 0
- SPOT intensity (Fus1, P11710): 4
- SPOT intensity (Sla1-2, P32790): 0
- SPOT intensity (Bzz1-1, P38822): 0
- SPOT intensity (Boi2, P39969): 0
- SPOT intensity (Myo5, Q04439): 0
- SPOT intensity (Bem1-1, P29366): 0
- SPOT intensity (Cyk3, Q07533): 0
- SPOT intensity (Lsb4, P32793): 4
- SPOT intensity (Hse1, P38753): 147
- SPOT intensity (Hof1, Q05080): 0
- SPOT intensity (Pex13, P80667): 17
- SPOT intensity (Cdc25, P04821): 14
- SPOT intensity (Lsb1, P53281): 0
- SPOT intensity (Sla1-3, P32790): 16
- SPOT intensity (Pin3, Q06449): 3
- SPOT intensity (Rvs167, P39743): 0
- SPOT intensity (Bud14, P27637): 8
- SPOT intensity (Sho1, P40073): 55
- SPOT intensity (Myo3, P36006): 0
- SPOT intensity (Bem1-2, P29366): 7
- SPOT intensity (GST): 0
- SPOT intensity (Abp1, P15891): 75
- SPOT intensity (Bzz1-2, P38822): 1

Binder: DKKTKPTPPPKPSHL
- SPOT intensity (Boi1, P38041): 3
- SPOT intensity (Nbp2, Q12163): 0
- SPOT intensity (Bbc1, P47068): 0
- SPOT intensity (Lsb3, P43603): 24
- SPOT intensity (Fus1, P11710): 0
- SPOT intensity (Sla1-2, P32790): 1
- SPOT intensity (Bzz1-1, P38822): 1
- SPOT intensity (Boi2, P39969): 2
- SPOT intensity (Myo5, Q04439): 0
- SPOT intensity (Bem1-1, P29366): 0
- SPOT intensity (Cyk3, Q07533): 0
- SPOT intensity (Lsb4, P32793): 0
- SPOT intensity (Hse1, P38753): 4
- SPOT intensity (Hof1, Q05080): 3
- SPOT intensity (Pex13, P80667): 4
- SPOT intensity (Cdc25, P04821): 1
- SPOT intensity (Lsb1, P53281): 0
- SPOT intensity (Sla1-3, P32790): 0
- SPOT intensity (Pin3, Q06449): 0
- SPOT intensity (Rvs167, P39743): 0
- SPOT intensity (Bud14, P27637): 1
- SPOT intensity (Sho1, P40073): 115
- SPOT intensity (Myo3, P36006): 0
- SPOT intensity (Bem1-2, P29366): 1
- SPOT intensity (GST): 0
- SPOT intensity (Abp1, P15891): 410
- SPOT intensity (Bzz1-2, P38822): 0

Binder: NMLKKKPLKKPLKRF
- SPOT intensity (Boi1, P38041): 11
- SPOT intensity (Nbp2, Q12163): 66
- SPOT intensity (Bbc1, P47068): 160
- SPOT intensity (Lsb3, P43603): 2
- SPOT intensity (Fus1, P11710): 36
- SPOT intensity (Sla1-2, P32790): 2
- SPOT intensity (Bzz1-1, P38822): 0
- SPOT intensity (Boi2, P39969): 1
- SPOT intensity (Myo5, Q04439): 1
- SPOT intensity (Bem1-1, P29366): 0
- SPOT intensity (Cyk3, Q07533): 2
- SPOT intensity (Lsb4, P32793): 1
- SPOT intensity (Hse1, P38753): 187
- SPOT intensity (Hof1, Q05080): 14
- SPOT intensity (Pex13, P80667): 18
- SPOT intensity (Cdc25, P04821): 68
- SPOT intensity (Lsb1, P53281): 0
- SPOT intensity (Sla1-3, P32790): 36
- SPOT intensity (Pin3, Q06449): 34
- SPOT intensity (Rvs167, P39743): 0
- SPOT intensity (Bud14, P27637): 33
- SPOT intensity (Sho1, P40073): 228
- SPOT intensity (Myo3, P36006): 24
- SPOT intensity (Bem1-2, P29366): 30
- SPOT intensity (GST): 6
- SPOT intensity (Abp1, P15891): 303
- SPOT intensity (Bzz1-2, P38822): 46
